Data as given in patent US20210388087A1 (Chugai, published 2021).

B1: H183/L072 VH G26D (antibody, name in Kabat numbering, V domains shown)
VH: QVQLVESGGGLVQPGRSLRLSCAASDFTFSNAWMHWVRQAPGKGLEWVAQIKDKGNAYAAYYAPSVKGRFTISRDDSKNSIYLQMNSLKTEDTAVYYCHYVHYASASTVLPAFGVDAWGQGTTVTVSS
VL: DIVMTQSPLSLPVTPGEPASISCQASQELVHMNRNTYLHWYQQKPGQAPRLLIYKVSNRFPGVPDRFSGSGSGTDFTLKISRVEAEDVGVYYCAQGTSVPFTFGQGTKLEIK
B2: H183/L072 VH G52cI (antibody, name in Kabat numbering, V domains shown)
VH: QVQLVESGGGLVQPGRSLRLSCAASGFTFSNAWMHWVRQAPGKGLEWVAQIKDKINAYAAYYAPSVKGRFTISRDDSKNSIYLQMNSLKTEDTAVYYCHYVHYASASTVLPAFGVDAWGQGTTVTVSS
VL: DIVMTQSPLSLPVTPGEPASISCQASQELVHMNRNTYLHWYQQKPGQAPRLLIYKVSNRFPGVPDRFSGSGSGTDFTLKISRVEAEDVGVYYCAQGTSVPFTFGQGTKLEIK
B3: H183/L072 VH G26S (antibody, name in Kabat numbering, V domains shown)
VH: QVQLVESGGGLVQPGRSLRLSCAASSFTFSNAWMHWVRQAPGKGLEWVAQIKDKGNAYAAYYAPSVKGRFTISRDDSKNSIYLQMNSLKTEDTAVYYCHYVHYASASTVLPAFGVDAWGQGTTVTVSS
VL: DIVMTQSPLSLPVTPGEPASISCQASQELVHMNRNTYLHWYQQKPGQAPRLLIYKVSNRFPGVPDRFSGSGSGTDFTLKISRVEAEDVGVYYCAQGTSVPFTFGQGTKLEIK
B4: H183/L072 VH G26Q (antibody, name in Kabat numbering, V domains shown)
VH: QVQLVESGGGLVQPGRSLRLSCAASQFTFSNAWMHWVRQAPGKGLEWVAQIKDKGNAYAAYYAPSVKGRFTISRDDSKNSIYLQMNSLKTEDTAVYYCHYVHYASASTVLPAFGVDAWGQGTTVTVSS
VL: DIVMTQSPLSLPVTPGEPASISCQASQELVHMNRNTYLHWYQQKPGQAPRLLIYKVSNRFPGVPDRFSGSGSGTDFTLKISRVEAEDVGVYYCAQGTSVPFTFGQGTKLEIK
B5: H183/L072 VH G26E (antibody, name in Kabat numbering, V domains shown)
VH: QVQLVESGGGLVQPGRSLRLSCAASEFTFSNAWMHWVRQAPGKGLEWVAQIKDKGNAYAAYYAPSVKGRFTISRDDSKNSIYLQMNSLKTEDTAVYYCHYVHYASASTVLPAFGVDAWGQGTTVTVSS
VL: DIVMTQSPLSLPVTPGEPASISCQASQELVHMNRNTYLHWYQQKPGQAPRLLIYKVSNRFPGVPDRFSGSGSGTDFTLKISRVEAEDVGVYYCAQGTSVPFTFGQGTKLEIK
B6: H183/L072 VH G52cF (antibody, name in Kabat numbering, V domains shown)
VH: QVQLVESGGGLVQPGRSLRLSCAASGFTFSNAWMHWVRQAPGKGLEWVAQIKDKFNAYAAYYAPSVKGRFTISRDDSKNSIYLQMNSLKTEDTAVYYCHYVHYASASTVLPAFGVDAWGQGTTVTVSS
VL: DIVMTQSPLSLPVTPGEPASISCQASQELVHMNRNTYLHWYQQKPGQAPRLLIYKVSNRFPGVPDRFSGSGSGTDFTLKISRVEAEDVGVYYCAQGTSVPFTFGQGTKLEIK
B7: H183/L072 VH G26Y (antibody, name in Kabat numbering, V domains shown)
VH: QVQLVESGGGLVQPGRSLRLSCAASYFTFSNAWMHWVRQAPGKGLEWVAQIKDKGNAYAAYYAPSVKGRFTISRDDSKNSIYLQMNSLKTEDTAVYYCHYVHYASASTVLPAFGVDAWGQGTTVTVSS
VL: DIVMTQSPLSLPVTPGEPASISCQASQELVHMNRNTYLHWYQQKPGQAPRLLIYKVSNRFPGVPDRFSGSGSGTDFTLKISRVEAEDVGVYYCAQGTSVPFTFGQGTKLEIK
B8: H183/L072 VH G52cA (antibody, name in Kabat numbering, V domains shown)
VH: QVQLVESGGGLVQPGRSLRLSCAASGFTFSNAWMHWVRQAPGKGLEWVAQIKDKANAYAAYYAPSVKGRFTISRDDSKNSIYLQMNSLKTEDTAVYYCHYVHYASASTVLPAFGVDAWGQGTTVTVSS
VL: DIVMTQSPLSLPVTPGEPASISCQASQELVHMNRNTYLHWYQQKPGQAPRLLIYKVSNRFPGVPDRFSGSGSGTDFTLKISRVEAEDVGVYYCAQGTSVPFTFGQGTKLEIK
B9: H183/L072 VH G26R (antibody, name in Kabat numbering, V domains shown)
VH: QVQLVESGGGLVQPGRSLRLSCAASRFTFSNAWMHWVRQAPGKGLEWVAQIKDKGNAYAAYYAPSVKGRFTISRDDSKNSIYLQMNSLKTEDTAVYYCHYVHYASASTVLPAFGVDAWGQGTTVTVSS
VL: DIVMTQSPLSLPVTPGEPASISCQASQELVHMNRNTYLHWYQQKPGQAPRLLIYKVSNRFPGVPDRFSGSGSGTDFTLKISRVEAEDVGVYYCAQGTSVPFTFGQGTKLEIK
B10: H183/L072 VH G52cD (antibody, name in Kabat numbering, V domains shown)
VH: QVQLVESGGGLVQPGRSLRLSCAASGFTFSNAWMHWVRQAPGKGLEWVAQIKDKDNAYAAYYAPSVKGRFTISRDDSKNSIYLQMNSLKTEDTAVYYCHYVHYASASTVLPAFGVDAWGQGTTVTVSS
VL: DIVMTQSPLSLPVTPGEPASISCQASQELVHMNRNTYLHWYQQKPGQAPRLLIYKVSNRFPGVPDRFSGSGSGTDFTLKISRVEAEDVGVYYCAQGTSVPFTFGQGTKLEIK
B11: H183/L072 VH G26L (antibody, name in Kabat numbering, V domains shown)
VH: QVQLVESGGGLVQPGRSLRLSCAASLFTFSNAWMHWVRQAPGKGLEWVAQIKDKGNAYAAYYAPSVKGRFTISRDDSKNSIYLQMNSLKTEDTAVYYCHYVHYASASTVLPAFGVDAWGQGTTVTVSS
VL: DIVMTQSPLSLPVTPGEPASISCQASQELVHMNRNTYLHWYQQKPGQAPRLLIYKVSNRFPGVPDRFSGSGSGTDFTLKISRVEAEDVGVYYCAQGTSVPFTFGQGTKLEIK
B12: H183/L072 VH G26F (antibody, name in Kabat numbering, V domains shown)
VH: QVQLVESGGGLVQPGRSLRLSCAASFFTFSNAWMHWVRQAPGKGLEWVAQIKDKGNAYAAYYAPSVKGRFTISRDDSKNSIYLQMNSLKTEDTAVYYCHYVHYASASTVLPAFGVDAWGQGTTVTVSS
VL: DIVMTQSPLSLPVTPGEPASISCQASQELVHMNRNTYLHWYQQKPGQAPRLLIYKVSNRFPGVPDRFSGSGSGTDFTLKISRVEAEDVGVYYCAQGTSVPFTFGQGTKLEIK
B13: H183/L072 VH G52cH (antibody, name in Kabat numbering, V domains shown)
VH: QVQLVESGGGLVQPGRSLRLSCAASGFTFSNAWMHWVRQAPGKGLEWVAQIKDKHNAYAAYYAPSVKGRFTISRDDSKNSIYLQMNSLKTEDTAVYYCHYVHYASASTVLPAFGVDAWGQGTTVTVSS
VL: DIVMTQSPLSLPVTPGEPASISCQASQELVHMNRNTYLHWYQQKPGQAPRLLIYKVSNRFPGVPDRFSGSGSGTDFTLKISRVEAEDVGVYYCAQGTSVPFTFGQGTKLEIK
B14: H183/L072 VH G52cE (antibody, name in Kabat numbering, V domains shown)
VH: QVQLVESGGGLVQPGRSLRLSCAASGFTFSNAWMHWVRQAPGKGLEWVAQIKDKENAYAAYYAPSVKGRFTISRDDSKNSIYLQMNSLKTEDTAVYYCHYVHYASASTVLPAFGVDAWGQGTTVTVSS
VL: DIVMTQSPLSLPVTPGEPASISCQASQELVHMNRNTYLHWYQQKPGQAPRLLIYKVSNRFPGVPDRFSGSGSGTDFTLKISRVEAEDVGVYYCAQGTSVPFTFGQGTKLEIK
B15: H183/L072 VH G26W (antibody, name in Kabat numbering, V domains shown)
VH: QVQLVESGGGLVQPGRSLRLSCAASWFTFSNAWMHWVRQAPGKGLEWVAQIKDKGNAYAAYYAPSVKGRFTISRDDSKNSIYLQMNSLKTEDTAVYYCHYVHYASASTVLPAFGVDAWGQGTTVTVSS
VL: DIVMTQSPLSLPVTPGEPASISCQASQELVHMNRNTYLHWYQQKPGQAPRLLIYKVSNRFPGVPDRFSGSGSGTDFTLKISRVEAEDVGVYYCAQGTSVPFTFGQGTKLEIK
B16: H183/L072 VH G26P (antibody, name in Kabat numbering, V domains shown)
VH: QVQLVESGGGLVQPGRSLRLSCAASPFTFSNAWMHWVRQAPGKGLEWVAQIKDKGNAYAAYYAPSVKGRFTISRDDSKNSIYLQMNSLKTEDTAVYYCHYVHYASASTVLPAFGVDAWGQGTTVTVSS
VL: DIVMTQSPLSLPVTPGEPASISCQASQELVHMNRNTYLHWYQQKPGQAPRLLIYKVSNRFPGVPDRFSGSGSGTDFTLKISRVEAEDVGVYYCAQGTSVPFTFGQGTKLEIK
B17: H183/L072 VH G26I (antibody, name in Kabat numbering, V domains shown)
VH: QVQLVESGGGLVQPGRSLRLSCAASIFTFSNAWMHWVRQAPGKGLEWVAQIKDKGNAYAAYYAPSVKGRFTISRDDSKNSIYLQMNSLKTEDTAVYYCHYVHYASASTVLPAFGVDAWGQGTTVTVSS
VL: DIVMTQSPLSLPVTPGEPASISCQASQELVHMNRNTYLHWYQQKPGQAPRLLIYKVSNRFPGVPDRFSGSGSGTDFTLKISRVEAEDVGVYYCAQGTSVPFTFGQGTKLEIK
B18: H183/L072 VH G26N (antibody, name in Kabat numbering, V domains shown)
VH: QVQLVESGGGLVQPGRSLRLSCAASNFTFSNAWMHWVRQAPGKGLEWVAQIKDKGNAYAAYYAPSVKGRFTISRDDSKNSIYLQMNSLKTEDTAVYYCHYVHYASASTVLPAFGVDAWGQGTTVTVSS
VL: DIVMTQSPLSLPVTPGEPASISCQASQELVHMNRNTYLHWYQQKPGQAPRLLIYKVSNRFPGVPDRFSGSGSGTDFTLKISRVEAEDVGVYYCAQGTSVPFTFGQGTKLEIK
B19: H183/L072 VH G26T (antibody, name in Kabat numbering, V domains shown)
VH: QVQLVESGGGLVQPGRSLRLSCAASTFTFSNAWMHWVRQAPGKGLEWVAQIKDKGNAYAAYYAPSVKGRFTISRDDSKNSIYLQMNSLKTEDTAVYYCHYVHYASASTVLPAFGVDAWGQGTTVTVSS
VL: DIVMTQSPLSLPVTPGEPASISCQASQELVHMNRNTYLHWYQQKPGQAPRLLIYKVSNRFPGVPDRFSGSGSGTDFTLKISRVEAEDVGVYYCAQGTSVPFTFGQGTKLEIK
B20: H183/L072 VH G52cK (antibody, name in Kabat numbering, V domains shown)
VH: QVQLVESGGGLVQPGRSLRLSCAASGFTFSNAWMHWVRQAPGKGLEWVAQIKDKKNAYAAYYAPSVKGRFTISRDDSKNSIYLQMNSLKTEDTAVYYCHYVHYASASTVLPAFGVDAWGQGTTVTVSS
VL: DIVMTQSPLSLPVTPGEPASISCQASQELVHMNRNTYLHWYQQKPGQAPRLLIYKVSNRFPGVPDRFSGSGSGTDFTLKISRVEAEDVGVYYCAQGTSVPFTFGQGTKLEIK
B21: H183/L072 VH G26H (antibody, name in Kabat numbering, V domains shown)
VH: QVQLVESGGGLVQPGRSLRLSCAASHFTFSNAWMHWVRQAPGKGLEWVAQIKDKGNAYAAYYAPSVKGRFTISRDDSKNSIYLQMNSLKTEDTAVYYCHYVHYASASTVLPAFGVDAWGQGTTVTVSS
VL: DIVMTQSPLSLPVTPGEPASISCQASQELVHMNRNTYLHWYQQKPGQAPRLLIYKVSNRFPGVPDRFSGSGSGTDFTLKISRVEAEDVGVYYCAQGTSVPFTFGQGTKLEIK

Each binder was assayed against T1, Human CD137 ECD (human) (assay: single mutant vs template dBBDu183H).
T1 construct: also called 4-1BB
T1 sequence (chain, as listed by the source limits assumed): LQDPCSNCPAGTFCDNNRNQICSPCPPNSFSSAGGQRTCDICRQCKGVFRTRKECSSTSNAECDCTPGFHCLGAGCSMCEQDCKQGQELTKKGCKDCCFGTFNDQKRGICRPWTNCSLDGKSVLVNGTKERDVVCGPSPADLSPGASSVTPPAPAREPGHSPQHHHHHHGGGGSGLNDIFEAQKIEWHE

| Binder | fold change of affinity [fold] |
| --- | --- |
| B1 | 0.8 |
| B2 | 0.7 |
| B3 | 0.4 |
| B4 | 0.4 |
| B5 | 0.5 |
| B6 | 1.7 |
| B7 | 0.3 |
| B8 | 0.8 |
| B9 | 0.3 |
| B10 | 0.6 |
| B11 | 0.3 |
| B12 | 0.3 |
| B13 | 1.3 |
| B14 | 0.8 |
| B15 | 0.3 |
| B16 | 0.1 |
| B17 | 0.3 |
| B18 | 0.5 |
| B19 | 0.5 |
| B20 | 0.2 |
| B21 | 0.4 |
